T1: mouse CSF-1R (mouse, UniProt P09581 20-511, limits assumed)
T1 construct: also called murine target protein (of the CSF-1R antibody); murine CSF-1R
T1 sequence (looked up): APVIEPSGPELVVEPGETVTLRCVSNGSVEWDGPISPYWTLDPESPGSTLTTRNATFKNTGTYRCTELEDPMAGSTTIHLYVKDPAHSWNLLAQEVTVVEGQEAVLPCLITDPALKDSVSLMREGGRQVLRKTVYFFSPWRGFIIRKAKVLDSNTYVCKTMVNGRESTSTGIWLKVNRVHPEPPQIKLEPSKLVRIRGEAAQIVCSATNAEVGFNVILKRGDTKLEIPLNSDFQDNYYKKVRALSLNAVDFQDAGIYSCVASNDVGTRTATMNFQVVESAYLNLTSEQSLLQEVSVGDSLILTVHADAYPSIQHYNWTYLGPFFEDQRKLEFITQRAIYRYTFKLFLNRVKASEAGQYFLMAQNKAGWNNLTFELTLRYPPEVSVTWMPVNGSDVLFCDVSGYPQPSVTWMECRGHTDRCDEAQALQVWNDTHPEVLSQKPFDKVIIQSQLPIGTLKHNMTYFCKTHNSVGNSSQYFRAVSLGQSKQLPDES


Columns and labels:
mouse CSF-1R = biological target: T1, mouse CSF-1R; assay: not described
mouse PD-L1 = biological target: T2, mouse PD-L1 (mouse, UniProt Q9EP73 19-238, limits assumed); assay: not described
T2 construct: also called murine target protein (of the PD-L1 antibody); murine PD-L1

[1] = biological target: T3, Soluble human PD-L1-Fc fusion protein (human, UniProt Q9NZQ7 19-239, limits assumed); assay: SPR (Biacore T200), antibody immobilised, PD-L1-Fc as analyte, 37 C, 1:1 model
T3 construct: not shown: Fc part
Procedure: The kinetics and equilibrium dissociation constant (KD) for human PD-L1 is determined for anti-PD-L1 antibodies of the present invention using surface plasmon resonance (Biacore).
Immobilization of anti-PD-L1 antibodies of the present invention as ligand on to sensor chip surface is performed at 25° C. Soluble human PD-L1-Fc fusion protein is injected as analyte at concentrations ranging from 0.0123 nM-9 nM. The analysis is performed at 37° C. The contact time for each sample is 180 sec at 30 μl/min. The dissociation time was 240-1500 seconds. The immobilized surface is regenerated for 18 seconds with 0.95 M NaCl/25 mM NaOH at […], and then stabilized for 30 seconds. Binding kinetics are analyzed using the Biacore T200 Evaluation software (Version 3.0). Data are referenced to a blank flow cell, and the data are fit to a 1:1 binding model.

T3 sequence (Q9NZQ7 19-239 limits assumed): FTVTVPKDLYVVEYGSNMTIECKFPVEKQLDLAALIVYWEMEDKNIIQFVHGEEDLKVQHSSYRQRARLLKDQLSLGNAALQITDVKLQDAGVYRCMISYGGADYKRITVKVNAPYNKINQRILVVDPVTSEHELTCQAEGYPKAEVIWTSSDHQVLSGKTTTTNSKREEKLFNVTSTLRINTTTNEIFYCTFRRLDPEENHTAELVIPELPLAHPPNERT
T2 sequence (Q9EP73 19-238 limits assumed): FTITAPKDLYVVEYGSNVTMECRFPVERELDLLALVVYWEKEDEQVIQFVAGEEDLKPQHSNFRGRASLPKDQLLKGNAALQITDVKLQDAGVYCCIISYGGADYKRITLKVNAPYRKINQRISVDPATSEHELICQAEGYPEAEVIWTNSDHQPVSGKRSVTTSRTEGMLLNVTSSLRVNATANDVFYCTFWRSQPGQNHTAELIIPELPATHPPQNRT

Row | binding result (mouse CSF-1R) | binding result (mouse PD-L1) | Kd [1] [nM] | Binder
1 | binds |  |  | CS7 (antibody, V domains shown, Rat antibody generated from a hybridoma; also called IMC-CS7; rat anti-mouse CSF-1R antibody) VH: DRQMVESGGGLVRPGRSLKLSCAASGFTFSNYYMAWVRLAPSKGLEWVASISPSGDNTYYPDSVQGRFTISRDNAETTLYLQVDSLRSEDTATYYCATRHYGYSFFDYWGQGVLVTVSS VL: DTVLTQSPALAVSPGERVTISCRASESVSTLIHWYQQKPGQQPKLLIFLASHLESGVPARFSGSGSGTDFTFTIDPVEADDTATYYCQQSWNDPPTFGGGTKLELK
2 | no binding |  |  | Antibody 1 (antibody, human IgG1, kappa, V domains shown, also called Anti-CSF-1R antibody) VH: QDQLVESGGGVVQPGRSLRLSCAASGFTFSSYGMHWVRQAPGEGLEWVAVIWYDGSNKYYADSVKGRFTISRDNSKNTLYLQMNSLRAEDTAVYYCARGDYEVDYGMDVWGQGTTVTVAS VL: AIQLTQSPSSLSASVGDRVTITCRASQGISNALAWYQQKPGKAPKLLIYDASSLESGVPSRFSGSGSGTDFTLTISSLQPEDFATYYCQQFNSYPWTFGQGTKVEIKR
3 |  | no binding | 0.082 | Antibody A (antibody, human IgG1, lambda, V domains shown, also called Anti-PD-L1 antibody) VH: QVQLVQSGAEVKKPGSSVKVSCKASGGTFSSYAISWVRQAPGQGLEWMGGIIPIFGTANYAQKFQGRVTITADKSTSTAYMELSSLRSEDTAVYYCARSPDYSPYYYYGMDVWGQGTTVTVSS VL: QSVLTQPPSASGTPGQRVTISCSGSSSNIGSNTVNWYQQLPGTAPKLLIYGNSNRPSGVPDRFSGSKSGTSASLAISGLQSEDEADYYCQSYDSSLSGSVFGGGIKLTVLG

— patent US20180291107A1 (Eli Lilly, published 2018)
